Consider 2 substances from publication PMC8876998.

Assay [1] addresses Getah virus capsid protein (Getah virus (GETV), strain SC483). Briefly: cryo-EM structure.
For assay [2], the target named is Getah virus envelope glycoprotein E2 (Getah virus (GETV), strain SC483). The assay can be described thus: cryo-EM structure.

“And” between values parts separate entries of the source, which are not always exact repeats. Equal entries are not always repeated.

Take “Getah virus capsid protein (natural protein)”: the stoichiometry N in assay [1] is 6 and 5.

Substance “Getah virus envelope glycoprotein E2 (natural protein)” came in with a stoichiometry N in assay [2] of 3.

One may read the stoichiometry N as a count of units in the complex or per binding partner.
